Test results reported in patent publication US20260201008A1, “SECRETIN-DERIVED GLP1R SELECTIVE AGONISTS” (GUBRA A/S, priority 2023, published 2026).
Numbered stars: 1 amine (or outer) side, 2 acyl side, 3 side chain; on linkers, the order of the positions; unused ones are H or OH. Square brackets hold non-standard residues; d marks the D form. Side chains are listed from the residue outwards. Ends that are not written are not given here. * marks the point of attachment. C20 diacid = O=C(O)CCCCCCCCCCCCCCCCCCC(=O)*; γGlu = O=C(O)[C@H](CCC(=O)[*:2])N[*:1]; AEEA = NCCOCCOCC(=O)O; Aib = CC(C)(N)C(=O)O

B1: SEQ ID NO: 191 (peptide)
peptide: H[Aib]EGTFTSDWSWLLEGAALQRFIQWLV-NH2
modifications: N-terminus assumed
SMILES: CC[C@H](C)[C@H](NC(=O)[C@H](Cc1ccccc1)NC(=O)[C@H](CCCNC(=N)N)NC(=O)[C@H](CCC(N)=O)NC(=O)[C@H](CC(C)C)NC(=O)[C@H](C)NC(=O)[C@H](C)NC(=O)CNC(=O)[C@H](CCC(=O)O)NC(=O)[C@H](CC(C)C)NC(=O)[C@H](CC(C)C)NC(=O)[C@H](Cc1c[nH]c2ccccc12)NC(=O)[C@H](CO)NC(=O)[C@H](Cc1c[nH]c2ccccc12)NC(=O)[C@H](CC(=O)O)NC(=O)[C@H](CO)NC(=O)[C@@H](NC(=O)[C@H](Cc1ccccc1)NC(=O)[C@@H](NC(=O)CNC(=O)[C@H](CCC(=O)O)NC(=O)C(C)(C)NC(=O)[C@@H](N)Cc1c[nH]cn1)[C@@H](C)O)[C@@H](C)O)C(=O)N[C@@H](CCC(N)=O)C(=O)N[C@@H](Cc1c[nH]c2ccccc12)C(=O)N[C@@H](CC(C)C)C(=O)N[C@H](C(N)=O)C(C)C
B2: SEQ ID NO: 201 (peptide)
peptide: H[Aib]EGTFTSDYSYLLEGAALQRFIQWLV-NH2
modifications: N-terminus assumed
SMILES: CC[C@H](C)[C@H](NC(=O)[C@H](Cc1ccccc1)NC(=O)[C@H](CCCNC(=N)N)NC(=O)[C@H](CCC(N)=O)NC(=O)[C@H](CC(C)C)NC(=O)[C@H](C)NC(=O)[C@H](C)NC(=O)CNC(=O)[C@H](CCC(=O)O)NC(=O)[C@H](CC(C)C)NC(=O)[C@H](CC(C)C)NC(=O)[C@H](Cc1ccc(O)cc1)NC(=O)[C@H](CO)NC(=O)[C@H](Cc1ccc(O)cc1)NC(=O)[C@H](CC(=O)O)NC(=O)[C@H](CO)NC(=O)[C@@H](NC(=O)[C@H](Cc1ccccc1)NC(=O)[C@@H](NC(=O)CNC(=O)[C@H](CCC(=O)O)NC(=O)C(C)(C)NC(=O)[C@@H](N)Cc1c[nH]cn1)[C@@H](C)O)[C@@H](C)O)C(=O)N[C@@H](CCC(N)=O)C(=O)N[C@@H](Cc1c[nH]c2ccccc12)C(=O)N[C@@H](CC(C)C)C(=O)N[C@H](C(N)=O)C(C)C
B3: SEQ ID NO: 197 (peptide)
peptide: H[Aib]EGTFTSDYS[Aib]LLEGAALQRFIQWLV-NH2
modifications: N-terminus assumed
SMILES: CC[C@H](C)[C@H](NC(=O)[C@H](Cc1ccccc1)NC(=O)[C@H](CCCNC(=N)N)NC(=O)[C@H](CCC(N)=O)NC(=O)[C@H](CC(C)C)NC(=O)[C@H](C)NC(=O)[C@H](C)NC(=O)CNC(=O)[C@H](CCC(=O)O)NC(=O)[C@H](CC(C)C)NC(=O)[C@H](CC(C)C)NC(=O)C(C)(C)NC(=O)[C@H](CO)NC(=O)[C@H](Cc1ccc(O)cc1)NC(=O)[C@H](CC(=O)O)NC(=O)[C@H](CO)NC(=O)[C@@H](NC(=O)[C@H](Cc1ccccc1)NC(=O)[C@@H](NC(=O)CNC(=O)[C@H](CCC(=O)O)NC(=O)C(C)(C)NC(=O)[C@@H](N)Cc1c[nH]cn1)[C@@H](C)O)[C@@H](C)O)C(=O)N[C@@H](CCC(N)=O)C(=O)N[C@@H](Cc1c[nH]c2ccccc12)C(=O)N[C@@H](CC(C)C)C(=O)N[C@H](C(N)=O)C(C)C
B4: SEQ ID NO: 196 (peptide)
peptide: H[Aib]EGTFTSDYSYLK([AEEA-AEEA-γGlu-C20 diacid])EEA[Aib]LQRFLEHLV-NH2
B5: SEQ ID NO: 198 (peptide)
peptide: H[Aib]EGTFTSDYSVLLEGAALQRFIQWLV-NH2
modifications: N-terminus assumed
SMILES: CC[C@H](C)[C@H](NC(=O)[C@H](Cc1ccccc1)NC(=O)[C@H](CCCNC(=N)N)NC(=O)[C@H](CCC(N)=O)NC(=O)[C@H](CC(C)C)NC(=O)[C@H](C)NC(=O)[C@H](C)NC(=O)CNC(=O)[C@H](CCC(=O)O)NC(=O)[C@H](CC(C)C)NC(=O)[C@H](CC(C)C)NC(=O)[C@@H](NC(=O)[C@H](CO)NC(=O)[C@H](Cc1ccc(O)cc1)NC(=O)[C@H](CC(=O)O)NC(=O)[C@H](CO)NC(=O)[C@@H](NC(=O)[C@H](Cc1ccccc1)NC(=O)[C@@H](NC(=O)CNC(=O)[C@H](CCC(=O)O)NC(=O)C(C)(C)NC(=O)[C@@H](N)Cc1c[nH]cn1)[C@@H](C)O)[C@@H](C)O)C(C)C)C(=O)N[C@@H](CCC(N)=O)C(=O)N[C@@H](Cc1c[nH]c2ccccc12)C(=O)N[C@@H](CC(C)C)C(=O)N[C@H](C(N)=O)C(C)C
B6: SEQ ID NO: 199 (peptide)
peptide: H[Aib]EGTFTSDYSELLEGAALQRFIQWLV-NH2
modifications: N-terminus assumed
SMILES: CC[C@H](C)[C@H](NC(=O)[C@H](Cc1ccccc1)NC(=O)[C@H](CCCNC(=N)N)NC(=O)[C@H](CCC(N)=O)NC(=O)[C@H](CC(C)C)NC(=O)[C@H](C)NC(=O)[C@H](C)NC(=O)CNC(=O)[C@H](CCC(=O)O)NC(=O)[C@H](CC(C)C)NC(=O)[C@H](CC(C)C)NC(=O)[C@H](CCC(=O)O)NC(=O)[C@H](CO)NC(=O)[C@H](Cc1ccc(O)cc1)NC(=O)[C@H](CC(=O)O)NC(=O)[C@H](CO)NC(=O)[C@@H](NC(=O)[C@H](Cc1ccccc1)NC(=O)[C@@H](NC(=O)CNC(=O)[C@H](CCC(=O)O)NC(=O)C(C)(C)NC(=O)[C@@H](N)Cc1c[nH]cn1)[C@@H](C)O)[C@@H](C)O)C(=O)N[C@@H](CCC(N)=O)C(=O)N[C@@H](Cc1c[nH]c2ccccc12)C(=O)N[C@@H](CC(C)C)C(=O)N[C@H](C(N)=O)C(C)C
B7: SEQ ID NO: 192 (peptide)
peptide: H[Aib]EGTFTSDWS[Aib]LLEGAALQRFIQWLV-NH2
modifications: N-terminus assumed
SMILES: CC[C@H](C)[C@H](NC(=O)[C@H](Cc1ccccc1)NC(=O)[C@H](CCCNC(=N)N)NC(=O)[C@H](CCC(N)=O)NC(=O)[C@H](CC(C)C)NC(=O)[C@H](C)NC(=O)[C@H](C)NC(=O)CNC(=O)[C@H](CCC(=O)O)NC(=O)[C@H](CC(C)C)NC(=O)[C@H](CC(C)C)NC(=O)C(C)(C)NC(=O)[C@H](CO)NC(=O)[C@H](Cc1c[nH]c2ccccc12)NC(=O)[C@H](CC(=O)O)NC(=O)[C@H](CO)NC(=O)[C@@H](NC(=O)[C@H](Cc1ccccc1)NC(=O)[C@@H](NC(=O)CNC(=O)[C@H](CCC(=O)O)NC(=O)C(C)(C)NC(=O)[C@@H](N)Cc1c[nH]cn1)[C@@H](C)O)[C@@H](C)O)C(=O)N[C@@H](CCC(N)=O)C(=O)N[C@@H](Cc1c[nH]c2ccccc12)C(=O)N[C@@H](CC(C)C)C(=O)N[C@H](C(N)=O)C(C)C
B8: SEQ ID NO: 200 (peptide)
peptide: H[Aib]EGTFTSDYSWLLEGAALQRFIQWLV-NH2
modifications: N-terminus assumed
SMILES: CC[C@H](C)[C@H](NC(=O)[C@H](Cc1ccccc1)NC(=O)[C@H](CCCNC(=N)N)NC(=O)[C@H](CCC(N)=O)NC(=O)[C@H](CC(C)C)NC(=O)[C@H](C)NC(=O)[C@H](C)NC(=O)CNC(=O)[C@H](CCC(=O)O)NC(=O)[C@H](CC(C)C)NC(=O)[C@H](CC(C)C)NC(=O)[C@H](Cc1c[nH]c2ccccc12)NC(=O)[C@H](CO)NC(=O)[C@H](Cc1ccc(O)cc1)NC(=O)[C@H](CC(=O)O)NC(=O)[C@H](CO)NC(=O)[C@@H](NC(=O)[C@H](Cc1ccccc1)NC(=O)[C@@H](NC(=O)CNC(=O)[C@H](CCC(=O)O)NC(=O)C(C)(C)NC(=O)[C@@H](N)Cc1c[nH]cn1)[C@@H](C)O)[C@@H](C)O)C(=O)N[C@@H](CCC(N)=O)C(=O)N[C@@H](Cc1c[nH]c2ccccc12)C(=O)N[C@@H](CC(C)C)C(=O)N[C@H](C(N)=O)C(C)C
B9: SEQ ID NO: 193 (peptide)
peptide: H[Aib]EGTFTSDWSELLEGAALQRFIQWLV-NH2
modifications: N-terminus assumed
SMILES: CC[C@H](C)[C@H](NC(=O)[C@H](Cc1ccccc1)NC(=O)[C@H](CCCNC(=N)N)NC(=O)[C@H](CCC(N)=O)NC(=O)[C@H](CC(C)C)NC(=O)[C@H](C)NC(=O)[C@H](C)NC(=O)CNC(=O)[C@H](CCC(=O)O)NC(=O)[C@H](CC(C)C)NC(=O)[C@H](CC(C)C)NC(=O)[C@H](CCC(=O)O)NC(=O)[C@H](CO)NC(=O)[C@H](Cc1c[nH]c2ccccc12)NC(=O)[C@H](CC(=O)O)NC(=O)[C@H](CO)NC(=O)[C@@H](NC(=O)[C@H](Cc1ccccc1)NC(=O)[C@@H](NC(=O)CNC(=O)[C@H](CCC(=O)O)NC(=O)C(C)(C)NC(=O)[C@@H](N)Cc1c[nH]cn1)[C@@H](C)O)[C@@H](C)O)C(=O)N[C@@H](CCC(N)=O)C(=O)N[C@@H](Cc1c[nH]c2ccccc12)C(=O)N[C@@H](CC(C)C)C(=O)N[C@H](C(N)=O)C(C)C
B10: SEQ ID NO: 20 (peptide)
peptide: H[Aib]EGTFTSDVSTLK([AEEA-AEEA-γGlu-C20 diacid])ETAASQRFLEHLV-NH2
B11: SEQ ID NO: 195 (peptide)
peptide: H[Aib]EGTFTSDYSGLLEGAALQRFIQWLV-NH2
modifications: N-terminus assumed
SMILES: CC[C@H](C)[C@H](NC(=O)[C@H](Cc1ccccc1)NC(=O)[C@H](CCCNC(=N)N)NC(=O)[C@H](CCC(N)=O)NC(=O)[C@H](CC(C)C)NC(=O)[C@H](C)NC(=O)[C@H](C)NC(=O)CNC(=O)[C@H](CCC(=O)O)NC(=O)[C@H](CC(C)C)NC(=O)[C@H](CC(C)C)NC(=O)CNC(=O)[C@H](CO)NC(=O)[C@H](Cc1ccc(O)cc1)NC(=O)[C@H](CC(=O)O)NC(=O)[C@H](CO)NC(=O)[C@@H](NC(=O)[C@H](Cc1ccccc1)NC(=O)[C@@H](NC(=O)CNC(=O)[C@H](CCC(=O)O)NC(=O)C(C)(C)NC(=O)[C@@H](N)Cc1c[nH]cn1)[C@@H](C)O)[C@@H](C)O)C(=O)N[C@@H](CCC(N)=O)C(=O)N[C@@H](Cc1c[nH]c2ccccc12)C(=O)N[C@@H](CC(C)C)C(=O)N[C@H](C(N)=O)C(C)C

Assays:
[1] = target: human GLP-1 receptor (hGLP1R) (human, UniProt P43220 24-463); assay: cell-based or functional assay
[2] = target: human secretin receptor (hSCTR) (human, UniProt P47872 23-440); assay: cell-based or functional assay
Chain of human secretin receptor (hSCTR) (P47872 23-440): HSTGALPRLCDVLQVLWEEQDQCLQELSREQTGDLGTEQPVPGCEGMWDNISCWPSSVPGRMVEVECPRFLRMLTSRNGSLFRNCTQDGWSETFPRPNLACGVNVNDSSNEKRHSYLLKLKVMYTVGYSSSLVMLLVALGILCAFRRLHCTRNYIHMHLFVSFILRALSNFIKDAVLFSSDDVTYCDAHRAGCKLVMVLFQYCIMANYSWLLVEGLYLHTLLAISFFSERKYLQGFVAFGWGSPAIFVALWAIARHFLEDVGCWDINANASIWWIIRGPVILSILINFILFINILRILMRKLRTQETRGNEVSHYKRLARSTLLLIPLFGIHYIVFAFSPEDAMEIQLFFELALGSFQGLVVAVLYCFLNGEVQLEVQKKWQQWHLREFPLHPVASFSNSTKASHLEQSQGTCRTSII

| pEC50 hGLPR1 [1] | pEC50 hSCTR [2] | Binder |
| --- | --- | --- |
| 10.1 -log M | 7.2 -log M | B1 |
| 10.9 -log M | 7.9 -log M | B2 |
| 10.8 -log M | 8.1 -log M | B3 |
| 10.9 -log M | 7.7 -log M | B4 |
| 10.6 -log M | 8.3 -log M | B5 |
| 10.6 -log M | 8.3 -log M | B6 |
| 9.9 -log M | 7.3 -log M | B7 |
| 10.7 -log M | 8.1 -log M | B8 |
| 10.6 -log M | 7.9 -log M | B9 |
| 10.7 -log M | 6.4 -log M | B10 |
| 10.6 -log M | 8 -log M | B11 |
